T1: human OX40, full-length, on cells (human, UniProt P43489 29-277)
T1 construct: whole, on cells; also called hPro1; cell surface human OX40
T1 sequence (looked up): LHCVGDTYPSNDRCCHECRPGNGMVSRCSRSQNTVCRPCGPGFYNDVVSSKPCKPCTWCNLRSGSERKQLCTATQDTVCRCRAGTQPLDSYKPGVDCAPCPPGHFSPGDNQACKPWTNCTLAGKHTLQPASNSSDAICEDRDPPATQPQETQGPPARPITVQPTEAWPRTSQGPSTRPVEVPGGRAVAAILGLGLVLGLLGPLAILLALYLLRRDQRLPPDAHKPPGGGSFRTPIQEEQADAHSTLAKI

T2: human OX40 extracellular domain (ECD) protein (human, UniProt P43489 29-214)
T2 construct: extracellular domain; also called human OX40 ECD; human OX40 protein; not shown: human Fc or His tag
T2 sequence (looked up): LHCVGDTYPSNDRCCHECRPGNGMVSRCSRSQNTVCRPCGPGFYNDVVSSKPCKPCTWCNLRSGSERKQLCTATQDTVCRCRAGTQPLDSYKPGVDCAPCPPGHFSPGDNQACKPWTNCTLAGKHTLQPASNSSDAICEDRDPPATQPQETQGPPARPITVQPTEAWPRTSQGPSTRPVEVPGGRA

T3: human CD271 ECD (human, UniProt P08138 29-250)
T3 construct: extracellular domain
T3 sequence (looked up): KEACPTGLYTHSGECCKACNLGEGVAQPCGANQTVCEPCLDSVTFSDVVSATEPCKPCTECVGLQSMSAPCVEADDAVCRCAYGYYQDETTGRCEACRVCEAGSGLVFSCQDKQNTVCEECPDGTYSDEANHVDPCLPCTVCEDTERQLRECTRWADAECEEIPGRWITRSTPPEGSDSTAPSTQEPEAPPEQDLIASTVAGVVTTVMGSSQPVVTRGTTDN

T4: mouse OX40 (mPro1) on transfected 293F cells (mouse, UniProt P47741 20-272)
T4 construct: whole, on cells
T4 sequence (looked up): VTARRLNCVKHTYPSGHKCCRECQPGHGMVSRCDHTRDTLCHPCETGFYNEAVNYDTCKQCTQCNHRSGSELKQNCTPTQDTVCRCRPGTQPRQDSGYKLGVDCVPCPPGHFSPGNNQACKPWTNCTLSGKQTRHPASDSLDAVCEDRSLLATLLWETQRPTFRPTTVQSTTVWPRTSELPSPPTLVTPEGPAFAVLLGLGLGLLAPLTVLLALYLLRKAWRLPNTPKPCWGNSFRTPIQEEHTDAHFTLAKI


Experiments:
[1] = target: T1, human OX40, full-length, on cells; assay: flow cytometry on activated human CD4+ T cells
Method: Briefly, human OX40-expressing CHO-K1 cells or activated human CD4⁺ T cells were transferred into 96-well U-bottom plates (Corning) at a density of 1×10⁵ cells/well. Testing antibodies were serially diluted in wash buffer (1×PBS/1% BSA) and incubated with cells at 4° C. for 1 h. After washing with 1×PBS/1% BSA, the secondary antibody goat anti-human IgG Fc-PE (Jackson ImmunoResearch Lab) was applied and incubated with cells at 4° C. in the dark for 1 h. The cells were then washed and resuspended in 1×PBS/1% BSA or fixed with 4% paraformaldehyde, and then analyzed by flow cytometry (BD).

[2] = target: T2, human OX40 extracellular domain (ECD) …; assay: epitope binning by competition against labelled BMK7 on human OX40; the antibody named in the legend box is titrated; the text describes an ELISA, the axis on the sheet reads MFI
human CD271 ECD = target: T3, human CD271 ECD; assay: ELISA on coated ECD, one antibody concentration (not given)
human CD40 ECD = target: T5, human CD40 ECD (human, UniProt P25942 21-193); assay: as above
T5 construct: extracellular domain
Method: (§1) Human OX40, CD40, 4-1BB (CD137) and CD271 ECD were coated on plates (Nunc) overnight at 4° C. After blocking and washing, testing antibodies were diluted in blocking buffer and added to the plates and incubated at room temperature for 1 h. The plates were then washed and subsequently incubated with secondary antibody goat anti-human IgG Fc-HRP (Bethyl) for 1 h. After washing, TMB substrate was added and the interaction was stopped by 2M HCl.

human 4-1BB (CD137) ECD = target: T6, human 4-1BB (CD137) ECD (human, UniProt Q07011 24-186); assay: as above
T6 construct: extracellular domain
Method: as §1

[3] = target: T1, human OX40, full-length, on cells; assay: flow cytometry on human OX40 transfected CHO-K1 cells
Method: (§2) CHO-K 1 cells expressing human OX40 were transferred in to 96-well U-bottom plates (Corning) at a density of 5×10⁴ cells/mL. Testing antibodies were 1:2 serially diluted in wash buffer (1×PBS/1% BSA) and incubated with cells at 4° C. for 1 h. The secondary antibody goat anti-human IgG Fc FITC (3.2 moles FITC per mole IgG, Jackson Immunoresearch Lab) was added and incubated with cells at 4° C. in the dark for half an hour. The cells were then washed once, resuspended in 1×PBS/1% BSA and analyzed by flow cytometry (BD). Fluorescence intensity was converted to bound molecules/cell based on the quantitative beads Quantum™ MESF Kits (Bangs Laboratories, Inc.). The KD value of each antibody was calculated using Graphpad Prism5.

[4] = target: T2, human OX40 extracellular domain (ECD) …; assay: SPR, Biacore T200, antibody captured, OX40 as analyte
Method: Antibodies were characterized for affinity and binding kinetics to OX40 by SPR assay using Biacore T200 (GE). […] Then various concentrations of human or monkey OX40 and running buffer were flowed through the sensor chip at a flow rate of 30 μL/min for an association phase of 180 s, followed by dissociation. The association and dissociation curve was fit by 1:1 Langmuir binding model using the BIAevaluation T200 software.

[5] = target: T2, human OX40 extracellular domain (ECD) …; assay: competition ELISA: human OX40 ECD coated, antibody titrated in a mix with a constant concentration of OX40L, bound OX40L detected at OD450
Method: Briefly, plates (Nunc) were coated with human OX40 ECD at 1 μg/mL overnight at 4° C. […] After washing, TMB substrate was added and the interaction was stopped by 2M HCl.

[6] = target: T1, human OX40, full-length, on cells; assay: flow cytometry, MFI against antibody concentration; neither the legend nor paragraph 266 names the cells, target taken as cell-surface human OX40 because the antibodies are anti-OX40
[7] = target: T7, rhesus monkey OX40 on transfected 293F cells (rhesus monkey); assay: flow cytometry on rhesus monkey OX40 transfected 293F cells
T7 construct: whole, on cells
Method: Testing antibodies were serially diluted in wash buffer (1×PBS/1% BSA) and incubated with cells at 4° C. for 1 h. After washing with 1×PB S/1% BSA, the secondary antibody goat anti-human IgG Fc-PE (Jackson ImmunoResearch Lab) was applied and incubated with cells at 4° C. in the dark for 1 h. The cells were then washed and resuspended in 1×PB S/1% BSA or fixed with 4% paraformaldehyde, and then analyzed by flow cytometry (BD).

[8] = target: T1, human OX40, full-length, on cells; assay: flow cytometry, CHO-K1 cells expressing human OX40, MESF beads
Method: as §2

[9] = target: T1, human OX40, full-length, on cells; assay: FACS, transfected 293F cells, antibody 1 ug/mL
Method: (§3) Binding of antibodies to chimeric OX40 variants was analyzed by flow cytometry. […] Cells were analyzed using flow cytometer.

[10] = target: T4, mouse OX40 (mPro1) on transfected 293F …; assay: FACS, transfected 293F cells, antibody 1 ug/mL
Method: as §3

[11] = target: T2, human OX40 extracellular domain (ECD) …; assay: epitope binning by competition against labelled BMK10 on human OX40; the antibody named in the legend box is titrated; the text describes an ELISA, the axis on the sheet reads MFI

T5 sequence (P25942 21-193): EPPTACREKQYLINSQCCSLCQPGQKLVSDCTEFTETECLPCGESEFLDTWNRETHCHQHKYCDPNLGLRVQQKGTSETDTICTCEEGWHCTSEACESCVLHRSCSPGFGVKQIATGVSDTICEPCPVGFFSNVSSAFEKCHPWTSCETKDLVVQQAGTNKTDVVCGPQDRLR
T6 sequence (Q07011 24-186): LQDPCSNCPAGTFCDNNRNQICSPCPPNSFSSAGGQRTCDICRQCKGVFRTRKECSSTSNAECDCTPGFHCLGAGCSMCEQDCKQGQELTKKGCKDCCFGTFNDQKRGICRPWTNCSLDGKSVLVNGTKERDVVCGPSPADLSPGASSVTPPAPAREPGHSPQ

Binder	EC50 (read off the curve) [1] [nM]	IC50 (read off the curve) [2] [nM]	binding result (human CD271 ECD)	binding result (human CD40 ECD)	binding result (human 4-1BB (CD137) ECD)	EC50 (read off the curve) [3] [nM]	Kd [4] [nM]	koff [4] [s⁻¹]	kon [4] [M⁻¹ s⁻¹]	IC50 (read off the curve) [5] [nM]	EC50 (read off the curve) [6] [nM]	EC50 (read off the curve) [7] [nM]	Kd [8] [nM]	MFI [9]	PE + % [9] [%]	MFI [10]	PE + % [10] [%]	IC50 (read off the curve) [11] [nM]
1.7.10-u1-IgG1K (antibody, V domains shown, fully human IgG1, kappa) VH: QVHLVESGGGLVKPGGSLRLSCAASGFTFSDYYMSWIRQAPGKGLEWVSYISGSGNTIYYADSVKGRFTISRDNAKNSLYLQMNSLRADDTAVYFCARERGAAGTGWFDPWGQGTLVTVSS VL: DIQMTQSPSSVSASVGDRVTITCRASQGISSWLAWYQQKPGKAPKLLIYAASSLQGGVPSRFSGSGSGTDFTLTISSLQPEDFATYYCQQVNSFPWTFGQGTKVEIK	1 to 2	~4	no binding	no binding	no binding	~1	1.49	0.00128	860000	~3	–	–	–	–	–	–	–	–
1.186.19-u1-IgG1K (antibody, V domains shown, fully human IgG1, kappa) VH: QVHLVESGGGLVKPGGSLRLSCAASGFTFSDYYMGWIRQAPGQGLEWVSYISGSGNTIYYADSVKGRFTISRDNAKNSLYLQMNSLRADDTAVYFCAKERGAAGAGWFDPWGQGTLVTVSS VL: DIQMTQSPSSVSASVGDRVTITCRASQGISSWLAWYQQKPGKAPKLLIYAASSLQGGVPSRFSGSGSGTDFTLTISSLQPEDFATYHCQQVNSFPWTFGQGTKVEIK	~2	~4	no binding	no binding	no binding	–	1.16	0.000451	390000	~3	–	–	–	–	–	–	–	–
1.62.3-u1-IgG1K (antibody, V domains shown, fully human IgG1, kappa) VH: QVQLQESGPGLVKPSQTLSLTCTVSGGSISNGGYYWSWIRQHPGKGLEWIGYIYYSGSTYYNPSLKSRVTISVDTSKNQFSLKLSSVTAADTAVYYCARDEWELRGFDYWGQGTLVTVSS VL: not shown	–	–	no binding	no binding	no binding	–	0.461	0.000243	526000	~1	~0.8	–	–	–	–	–	–	–
1.62.3-u1-3-IgG1K (antibody, V domains shown, fully human IgG1, kappa; PTM variant of 1.62.3-u1-IgG1K (G to A in CDRH1, C to S in CDRL1)) VH: QVQLQESGPGLVKPSQTLSLTCTVSGGSISNAGYYWSWIRQHPGKGLEWIGYIYYSGSTYYNPSLKSRVTISVDTSKNQFSLKLSSVTAADTAVYYCARDEWELRGFDYWGQGTLVTVSS VL: not shown	~0.8	–	–	–	–	~0.9	2.08	0.00145	697000	–	~2	–	–	–	–	–	–	–
1.214.23-u1-IgG1K (antibody, V domains shown, fully human IgG1, kappa) VH: QVQLQESGPGLVKPSGTLSLTCVVSGGSISNRNWWSWVRQPPGKGLEWIGEIFHSGNTNYNPSLKSRVTISVDKSKNQFSLKVNSVTAADTAVYYCAKSFAVALDSWGQGTLVTVSS VL: DIQLTQSPSFLSASVGDRVTITCRASQDINSYLAWCQQKPGKAPKLLIYAASSLQSGVPSRFSGTGSGTEFTLTISSLQPEDFATYYCQQLFSYPITFGQGTRLEIK	–	~1	no binding	no binding	no binding	~0.6	0.502	0.000214	426000	~1	–	~3	0.067	8320	89.3	49.9	0.315	~4

From US20210171647A1 (WUXI BIOLOGICS SHANGHAI, published 2021)
